Assay results taken from IntAct's records for PubMed 29983246.

B1: Mitochondrial-derived peptide MOTS-c (Homo sapiens), A0A0C5B5G6 (parent)
chain: MRWQEMGYIFYPRKLR
partner: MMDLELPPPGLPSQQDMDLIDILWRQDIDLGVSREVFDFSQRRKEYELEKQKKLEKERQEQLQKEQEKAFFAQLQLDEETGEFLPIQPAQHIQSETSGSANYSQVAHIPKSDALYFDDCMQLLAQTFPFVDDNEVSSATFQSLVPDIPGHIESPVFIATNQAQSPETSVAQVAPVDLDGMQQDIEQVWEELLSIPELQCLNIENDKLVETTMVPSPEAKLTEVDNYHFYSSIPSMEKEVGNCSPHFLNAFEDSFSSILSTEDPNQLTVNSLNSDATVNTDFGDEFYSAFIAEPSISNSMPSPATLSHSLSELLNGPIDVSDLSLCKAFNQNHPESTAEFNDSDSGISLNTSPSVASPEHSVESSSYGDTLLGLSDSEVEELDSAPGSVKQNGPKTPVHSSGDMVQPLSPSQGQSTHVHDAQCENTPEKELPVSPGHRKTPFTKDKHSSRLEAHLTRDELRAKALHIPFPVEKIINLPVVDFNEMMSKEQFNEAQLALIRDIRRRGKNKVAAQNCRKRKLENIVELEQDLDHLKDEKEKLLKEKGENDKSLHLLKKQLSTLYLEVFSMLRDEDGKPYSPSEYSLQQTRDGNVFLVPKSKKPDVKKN

Variants of: B1
Settings: with nf2l2_human NFE2L2, Q16236

Row | Variant | effect of a mutation on the interaction
1 | R13A;K14A;L15A;R16A | with no effect
